# Reference: publication PMC8034861
# Target: Alexa Fluor 488-PR30 peptide (human)
# Experiment: single-molecule TIRF motility assay, co-transport of peptide foci with motors; 1 μM fluorescent PR30 with KIF5B::GFP or TMR-dynein-dynactin-BICD2N on immobilised microtubules; motility buffer with 25 mM KCl, α-casein, 5 mM MgATP; 23 ± 1°C; foci of PR30 moving with processive motors scored on kymographs
# Chain of Alexa Fluor 488-PR30 peptide (human) (peptide, as listed by the source): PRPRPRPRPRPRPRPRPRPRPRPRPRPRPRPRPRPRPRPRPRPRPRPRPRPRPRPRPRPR
substance,measurement,value
TMR-dynein-dynactin-BICD2N complex (from UniProt Q14204 1-4646; A0A287B8J2 1-1281),percent of processive motor complexes transporting large foci of PR30,8.1%
